PMC5974017, “Increased glutarate production by blocking the glutaryl-CoA dehydrogenation pathway and a catabolic pathway involving L-2-hydroxyglutarate” (Nature Communications, 2018)

Columns and labels:
LhgO [1] = molecular target: T1, LhgO (Pseudomonas putida, UniProt Q88IT9); experiment: oxygen electrode, stimulation of oxidase activity; assay type: biochemical; conditions: enzyme preincubated with 50 μM FAD 1 h on ice; 5 mM L-2-HG, Tris-HCl pH 7.4, 30 °C
T1 construct: recombinant His-tagged from E. coli BL21(DE3), pETDuet-1; partly lost FAD on purification
T1 sequence (Q88IT9 1-416): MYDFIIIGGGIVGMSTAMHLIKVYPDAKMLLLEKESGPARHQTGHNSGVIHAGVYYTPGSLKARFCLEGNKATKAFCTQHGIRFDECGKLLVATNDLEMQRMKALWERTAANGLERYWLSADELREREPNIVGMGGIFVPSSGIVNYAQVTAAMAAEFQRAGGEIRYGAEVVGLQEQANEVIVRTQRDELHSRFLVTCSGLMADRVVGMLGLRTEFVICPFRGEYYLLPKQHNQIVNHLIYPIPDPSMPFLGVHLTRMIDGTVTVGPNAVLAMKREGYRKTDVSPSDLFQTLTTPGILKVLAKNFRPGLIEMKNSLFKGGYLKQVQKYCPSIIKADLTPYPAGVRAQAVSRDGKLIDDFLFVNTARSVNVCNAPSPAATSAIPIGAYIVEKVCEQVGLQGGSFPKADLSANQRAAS

LhgO [2] = molecular target: T1, LhgO; experiment: DCPIP reduction at […] nm; product 2-KG by HPLC and LC-MS/MS; assay type: biochemical; conditions: 50 mM Tris-HCl pH 7.4, 30 °C, 5 mM L-2-HG, 0.1 mM DCPIP
YgaF = molecular target: T2, YgaF (Escherichia coli, UniProt P37339); experiment: L-2-HG oxidation to 2-KG; oxygen electrode; assay type: biochemical; conditions: 50 mM Tris-HCl pH 7.4, 30 °C, 5 mM L-2-HG
T2 construct: gene lhgD; recombinant from E. coli BL21(DE3), pETDuet-1, HisTrap purified
T2 sequence (P37339 1-422): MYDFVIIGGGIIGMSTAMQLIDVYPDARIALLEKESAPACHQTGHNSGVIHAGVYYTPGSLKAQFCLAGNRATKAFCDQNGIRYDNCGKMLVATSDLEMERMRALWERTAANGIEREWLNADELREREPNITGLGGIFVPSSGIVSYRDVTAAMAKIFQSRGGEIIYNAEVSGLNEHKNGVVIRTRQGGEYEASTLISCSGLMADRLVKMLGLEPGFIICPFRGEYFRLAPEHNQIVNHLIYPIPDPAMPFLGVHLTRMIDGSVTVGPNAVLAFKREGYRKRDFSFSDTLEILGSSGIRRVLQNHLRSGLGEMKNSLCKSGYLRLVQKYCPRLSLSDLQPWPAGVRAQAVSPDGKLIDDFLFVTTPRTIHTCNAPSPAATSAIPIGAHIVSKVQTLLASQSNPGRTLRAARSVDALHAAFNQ

[3] = molecular target: T3, LhgO homolog from Klebsiella pneumoniae ATCC25955 (Klebsiella pneumoniae, UniProt A6T539); experiment: L-2-HG oxidation to 2-KG; assay type: biochemical
T3 construct: gene ygaF; recombinant from E. coli BL21(DE3), pETDuet-1, HisTrap purified

[4] = molecular target: T4, CsiD homolog from E. coli K-12 MG1655 (Escherichia coli, UniProt P76621); experiment: glutarate hydroxylation by purified homolog; assay type: biochemical; conditions: co-substrate 2-KG
T4 construct: gene glaH; recombinant from E. coli BL21(DE3), pETDuet-1, HisTrap purified

[5] = molecular target: T5, CsiD homolog from Klebsiella pneumoniae ATCC25955 (Klebsiella pneumoniae, UniProt A6T540); experiment: glutarate hydroxylation by purified homolog; assay type: biochemical; conditions: co-substrate 2-KG
T5 construct: recombinant from E. coli BL21(DE3), pETDuet-1, HisTrap purified

O=C(O)CCC(=O)C(=O)O = experiment: Clark-type oxygen electrode, double-reciprocal plot; assay type: biochemical, Pseudomonas putida; conditions: pH 6.7
Description: (§1) Clark-type oxygen electrode, double-reciprocal plot on CsiD

O=C(O)CCCC(=O)O = experiment: as above; assay type: biochemical, Pseudomonas putida; conditions: pH 6.7
Description: as §1

[6] = molecular target: the molecule itself; experiment: SEC; Superdex 200 10/300 GL, eluent buffer C (50 mM sodium phosphate, 150 mM sodium chloride, pH 7.2), flow 0.5 mL min^-1; calibrated with thyroglobulin, ferritin, aldolase, conalbumin, ovalbumin and RNase A; native mass divided by the calculated monomer mass of 38.9 kDa

T4 sequence (P76621 whole entry): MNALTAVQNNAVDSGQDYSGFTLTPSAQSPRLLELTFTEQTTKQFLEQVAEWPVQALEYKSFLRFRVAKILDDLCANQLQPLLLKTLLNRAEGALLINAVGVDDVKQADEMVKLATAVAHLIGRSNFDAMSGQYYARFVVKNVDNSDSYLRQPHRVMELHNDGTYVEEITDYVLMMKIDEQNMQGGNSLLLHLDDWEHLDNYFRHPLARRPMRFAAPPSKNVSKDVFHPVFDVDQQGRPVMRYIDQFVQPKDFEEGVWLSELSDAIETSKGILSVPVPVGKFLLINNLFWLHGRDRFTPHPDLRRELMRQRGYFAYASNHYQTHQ
T5 sequence (A6T540 entry or part of it): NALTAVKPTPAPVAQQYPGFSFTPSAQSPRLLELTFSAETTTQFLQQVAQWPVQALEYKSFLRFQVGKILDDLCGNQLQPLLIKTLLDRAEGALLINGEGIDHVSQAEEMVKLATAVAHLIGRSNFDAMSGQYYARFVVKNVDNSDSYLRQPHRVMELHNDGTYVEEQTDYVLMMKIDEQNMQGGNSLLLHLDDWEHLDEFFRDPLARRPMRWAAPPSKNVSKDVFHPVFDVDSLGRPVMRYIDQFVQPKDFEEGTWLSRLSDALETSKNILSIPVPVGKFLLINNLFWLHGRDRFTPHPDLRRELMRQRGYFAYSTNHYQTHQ
T3 sequence (A6T539 entry or part of it): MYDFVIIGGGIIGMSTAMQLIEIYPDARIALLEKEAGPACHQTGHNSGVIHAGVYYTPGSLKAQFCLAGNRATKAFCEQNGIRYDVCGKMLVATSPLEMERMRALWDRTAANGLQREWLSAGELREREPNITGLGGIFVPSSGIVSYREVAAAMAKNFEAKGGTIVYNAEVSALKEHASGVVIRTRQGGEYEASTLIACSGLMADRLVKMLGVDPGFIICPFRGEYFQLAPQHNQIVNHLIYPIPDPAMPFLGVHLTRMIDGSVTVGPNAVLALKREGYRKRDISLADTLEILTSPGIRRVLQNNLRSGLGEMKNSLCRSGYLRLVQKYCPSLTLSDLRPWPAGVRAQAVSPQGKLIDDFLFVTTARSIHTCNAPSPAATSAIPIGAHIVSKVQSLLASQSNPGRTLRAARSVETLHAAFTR

Molecule: Cc1cc2nc3c(=O)[nH]c(=O)nc-3n(C[C@H](O)[C@H](O)[C@H](O)COP(=O)(O)OP(=O)(O)OC[C@H]3O[C@@H](n4cnc5c(N)ncnc54)[C@H](O)[C@@H]3O)c2cc1C [FAD]
- oxygen electrode, stimulation of oxidase activity (LhgO [1]): The oxidase activity of LhgO can be stimulated by FAD

Molecule: O=C(O)CC[C@H](O)C(=O)O [L-2-HG]
- DCPIP reduction at 600 nm; product 2-KG by HPLC and LC-MS/MS (LhgO [2]): Robust activity was detected only when L-2-HG was used as the substrate
- L-2-HG oxidation to 2-KG; oxygen electrode (YgaF): the homologs of LhgO can catalyze L-2-HG to produce 2-KG
- L-2-HG oxidation to 2-KG [3]: the homologs of LhgO can catalyze L-2-HG to produce 2-KG

Molecule: O=C(O)CCCC(=O)O [glutarate]
- glutarate hydroxylation by purified homolog [4]: All three homologs of CsiD can catalyze the hydroxylation of glutarate
- glutarate hydroxylation by purified homolog [5]: All three homologs of CsiD can catalyze the hydroxylation of glutarate

Molecule: CsiD (Pseudomonas putida KT2440)
- Km (O=C(O)CCC(=O)C(=O)O): 95.33 ± 0.97 µM
- Vmax (O=C(O)CCC(=O)C(=O)O): 144 µmol/min/mg
- kcat/Km (O=C(O)CCC(=O)C(=O)O): 7.49e+06 ± 120000 M⁻¹ s⁻¹
- Km (O=C(O)CCCC(=O)O): 145.67 ± 1.53 µM
- Vmax (O=C(O)CCCC(=O)O): 264 µmol/min/mg
- kcat/Km (O=C(O)CCCC(=O)O): 6.93e+06 ± 30000 M⁻¹ s⁻¹

B1: CsiD of P. putida KT2440, glutarate hydroxylase (enzyme, Pseudomonas putida KT2440, UniProt Q88IU0 1-325, looked up)
chain: MNAFTQIDELVMPLPLEPQGYTIAPSKQSPRLLELTFARETVEAFVQAVAQWPVQALEYKSFLRFRVGEILDELCQGTLRPVLLNTILDRATGGMLITPIGLDDVSQAEDMVKFTTACAHLIGRSNYDAMSGQFYARFVVVNSDNSDSYLRQPHRVMELHNDGTFVNQITDYVLMLKIDEKNMEGGNSLLLHLDDWEQCEAFFRHPLARREMRWTAPPSKKVAEDVFHSVFDTDAEGRPTMRYIDQFVQPENYEEGIWLNALSESLEGSGKKVSVPVGVGSFLLINNLFWLHGRDRFTPHEGLRRELMRQRGYVAFPKPLYQRGQ
notes: CsiD (glutarate hydroxylase) of Pseudomonas putida KT2440, locus PP2909; gene amplified from genomic DNA with primers csiD-F/csiD-R and cloned EcoRI/HindIII into pETDuet-1; also called PP2909; Fe2+/2-KG-dependent glutarate hydroxylase; source: E. coli BL21(DE3) harboring pETDuet-csiD, purified (HisTrap HP column)
- stoichiometry N [6]: 8
